B1: His6-Rga7(1–320) (domain or fragment)
chain: MLSAPSSSTTPASPPTSPPNTTSSDDFAVLKEPKVEAILNSELGLAILNDRIKDYLLTCKELAGFFKKRSILEEESGKNLQKLAKSYLETFQSKHHSPQSFSASVITSMEIHEQLANHSLTLQKTLSAFSDQVIEFHKNAERKRKSIKEYAKKQENAYLEAVMQMDKSKSRFKGAETEYNRALDNKNTGDSQKKVGFFKPKSNAQLTKLEDEARLKAENAESDMHSKIENAQNVQKQLLCIHRPNYIKQFFSLQREIESSLIANYLRYTKLCESNTLLNGLTIRPQKPTPTNCGLQHALDNINANTDFVQYVLHASIKHE

Columns and labels:
His6-Rga7(1–320) = target: B1; assay: supernatant depletion assay
AUC = target: the molecule itself; assay: AUC

Binder	Kd (His6-Rga7(1–320))	stoichiometry N (AUC)
GST-Rng10(751–1,038) (domain or fragment) SNSKAPAIEETTTTKVEVVAAHDAVSISSNSSTHKSHSEPLNRDELEVAALSRGSLPEPPKPNKQIVVQEEDQRDTLSLKTSTTGLSSHSKSAENNSTQQSTTSPSINSGASADAVSSGISKKADNSETNLNYFATLDAFVKSPLMSFDGLGELGSTDQRYNFFNQKIQEYSAYDSGLDNWIQFCLEKDGEAPKEAPPPPRSEPVSTTTKLAKRITQPSLSPARSTVTITHNIATEAKKKSKSAANDILHLFKKKAKSEQSNAKSSSSSIKESKKMKTLFGKKLGFKS	430 nM	
B1		2
GST-Rng10(751–950) (domain or fragment) SNSKAPAIEETTTTKVEVVAAHDAVSISSNSSTHKSHSEPLNRDELEVAALSRGSLPEPPKPNKQIVVQEEDQRDTLSLKTSTTGLSSHSKSAENNSTQQSTTSPSINSGASADAVSSGISKKADNSETNLNYFATLDAFVKSPLMSFDGLGELGSTDQRYNFFNQKIQEYSAYDSGLDNWIQFCLEKDGEAPKEAPPPP	690 nM	

Source: publication PMC6425953 (Cell reports, 2019)
